Patent US20100196282A1, “OPTICAL IMAGING AGENTS” (priority 2007, published 2010)
pKd: −log10 of the molar value. Where a SMILES comes first, the peptide text is derived from it. Bridges are numbered along the chain shown (N, C = ends). The star is where a group is joined. X1 = CC1=CC(C)(C)N(CCCS(=O)(=O)O)c2cc3c(cc21)/C(=C/C=C/C1=[N+](CCCS(=O)(=O)O)c2ccc(S(=O)(=O)[O-])cc2C1(C)CCCC(=O)*)C=C(C(C)(C)C)O3; X8 = CC1=CC(C)(C)N(CCCS(=O)(=O)O)c2cc3c(cc21)/C(=C/C=C/C1=[N+](CCCS(=O)(=O)[O-])c2ccc(S(=O)(=O)O)cc2C1(C)CCCC(=O)*)C=C(C(C)(C)C)O3; X7 = CCN1c2cc3c(cc2C(C)=CC1(C)C)/C(=C/C=C/C1=[N+](CCCS(=O)(=O)[O-])c2ccc(S(=O)(=O)O)cc2C1(C)CCCC(=O)*)C=C(C(C)(C)C)O3; X2 = CCN1c2cc3c(cc2C(C)=CC1(C)C)/C(=C/C=C/C1=[N+](CCCCCC(=O)*)c2ccc(S(=O)(=O)[O-])cc2C1(C)C)C=C(C(C)(C)C)O3; X9 = CCN(CC)c1ccc2c(c1)OC(C(C)(C)C)=C/C2=C\C=C\C1=[N+](CCCS(=O)(=O)[O-])c2ccc(S(=O)(=O)O)cc2C1(C)CCCC(=O)*

Experiments:
[1] = tested on: HT-29 human colon carcinoma tumour (c-Met expressing); assay: In vivo optical imaging of HT-29 tumour-bearing nude mice; design: species or system mouse; settings: HT-29 s.c. tumours in female BALB c/A nude mice, i.v., 635 nm excitation
Excerpt: Female BALB c/A nude (Born) mice were used in the study. The use of the animals was approved by the local ethics committee. BALB c/A nude is an inbred immunocompromised mouse strain with a high take rate for human tumours as compared to other nude mice strains. The mice were 8 weeks old upon arrival and with a body weight of approx. 20 grams at the start of the study. The animals were housed in individually ventilated cages (IVC, Scanbur BK) with HEPA filtered air. The animals had ad libitum access to “Rat and Mouse nr. 3 Breeding” diet (Scanbur BK) and tap water acidified by addition of HCl to a molar concentration of 1 mM (pH 3.0).
The colon cancer cell HT-29 is derived from human colon carcinomas and is reported to express c-Met according to Zeng et al [Clin. Exp. Metastasis, 21, 409-417. (2004)]. The cell line was proven to be tumorigenic when inoculated subcutaneously into nude mice [Flatmark et al, Eur. J. Cancer 40, 1593-1598 (2004)].
HT-29 cells were grown in McCoy's 5a medium (Sigma #M8403) supplemented with 10% fetal bovine serum and penicillin/streptomycin. Stocks were made at passage number four (P4) and frozen down for storage in liquid nitrogen at 10^7 cells/vial in the respective culture media containing 5% DMSO. On the day of the transplantation, the cells were thawed quickly in 37° C. water bath (approx. 2 min), washed and resuspended in PBS/2% serum (centrifugation at 1200 rpm for 10 min). Thorough mixing of cells in the vials was ensured every time the cells were aspirated into the dosing syringe. A volume of 0.1 ml of cell suspension was injected s.c. at the shoulder and at the back using a fine bore needle (25 G). The animals were then returned to their cages and the tumours were allowed to grow for 13-17 days. The animals were allowed an acclimatisation period of at least 5 days before the inoculation procedure.
All test substances were reconstituted with PBS from freeze-dried powder. A small stack of white printer paper was imaged to obtain a flat field image which was used to correct for illumination inhomogeneities.
For immobilisation during the optical imaging procedure, the animals were anaesthetized in a coaxial open mask to light surgical level anaesthesia with Isoflurane (typically 1.3-2%), using oxygen as the carrier gas. A small piece of skin (3-5 mm) was removed over parts of the tumour and adjacent muscle using a surgical forceps and fine scissors while the animal was anaesthetized. This was done to measure the signal from tumour and muscle without interference from the overlying skin tissue. The wound was covered by applying a liquid, non-fluorescent bandage spray (3M, MN, USA).
The respiration and body temperature of the animal was monitored with a BioVet system (m2m Imaging Corp, NJ, USA) using a pneumatic sensor underneath the animal and a rectal temperature probe. The BioVet system also supplied external heating using a heating mat set to 40° C. to sustain normal body temperature for the duration of the imaging procedure (2 hours). A Venflon catheter was placed in the tail vein for contrast agent administration. Each animal was given one contrast agent injection. The injected volume was 0.1 ml of test compound followed immediately by a 0.2 ml saline flush. Fluorescence images were acquired just prior to injection and then every 30 seconds for 2 hours.
Imaging was performed through a clinical laparoscope adapted to use a light source to excite the reporter and a filtering system to extract the fluorescence component. […]

human c-Met/Fc chimera = molecular target: T1, human c-Met/Fc chimera (Homo sapiens, UniProt P08581); assay: Fluorescence polarisation assay, affinity binding to cMet; settings: 5 nM dye-labelled peptide, c-Met/Fc 0-250 nM, 10 min at 30° C., one-site binding
T1 construct: Fc (immunoglobulin Fc fusion partner); purchased R&D Systems
Experimental: Monochromatic light passes through a […] polarizing filter and excites fluorescent molecules in the sample. Only those molecules that oriented properly in the vertically polarized plane adsorb light, become excited, and subsequently emit light. The emitted light is measured in both horizontal and vertical planes. The anisotropy value (A), is the ratio between the light intensities following the equation
The fluorescence anisotropy measurements were performed in 384-well microplates in a volume of 10 μL in binding buffer (PBS, 0.01% Tween-20, pH 7.5) using a Tecan Safire fluorescence polarisation plate reader (Tecan, US) at Ex 635/Em 678 nm. The concentration of dye-labelled peptide was held constant (5 nM) and the concentration of the human c-Met/Fc chimera (R&D Systems) was varied from 0-250 nM. Binding mixtures were equilibrated in the microplate for 10 min at 30° C. The observed change in anisotropy was fitted to the equation: […]
where robs is the observed anisotropy, rfree is the anisotropy of the free peptide, rbound is the anisotropy of the bound peptide, Kd is the dissociation constant, cMet is the total c-Met concentration, and P is the total dye-labelled peptide concentration. The equation assumes that the synthetic peptide and the receptor form a reversible complex in solution with 1:1 stoichiometry. Data fitting was done via nonlinear regression using SigmaPlot software to obtain the Kd value (one-site binding).
Compounds 1 to 6 were tested for binding towards human c-Met (Fc chimera).

human serum albumin [2] = molecular target: T2, human serum albumin (Homo sapiens, UniProt P02768); assay: in vitro
Excerpt: Fluorescence polarisation assay was used to examine the affinity binding of the imaging agent towards the cMet target as well as the binding properties related to plasma proteins. The principle of the fluorescence polarisation method can briefly be described as follows:
(§1) The change of the polarization value was used to assess the binding of the Compound to human serum albumin as a low change of polarisation value is associated to low binding being appropriate for in-vivo use.

in vitro = settings: mouse, plasma
Excerpt: as §1

[3] = Limited acute dose toxicity study in male rats; assay type: in vivo, rat; settings: i.v.
Experimental: A limited acute dose toxicity study was conducted to investigate the tolerance of Compound 6 at 100 times the preclinical imaging dose (50 nmol/kg body weight).
The compound was injected intravenously in male rats, and the animals were sacrificed at 1, 14, 21 and 28 days post injection (p.i.). At necropsy, the major organs were inspected for gross pathology, and the kidneys were taken into neutral buffered formalin for subsequent histomorphological evaluation. A weak blue colouration of the skin and a moderate blue colouration of the urine were observed immediately after injection, which disappeared within 1 day p.i. […] The other minor changes seen were incidental and common in young adult laboratory rats. Strong fluorescence staining of blood vessels in the kidney was observed on day 1 p.i.

human serum albumin [4] = molecular target: T2, human serum albumin

T2 sequence (P02768 25-609): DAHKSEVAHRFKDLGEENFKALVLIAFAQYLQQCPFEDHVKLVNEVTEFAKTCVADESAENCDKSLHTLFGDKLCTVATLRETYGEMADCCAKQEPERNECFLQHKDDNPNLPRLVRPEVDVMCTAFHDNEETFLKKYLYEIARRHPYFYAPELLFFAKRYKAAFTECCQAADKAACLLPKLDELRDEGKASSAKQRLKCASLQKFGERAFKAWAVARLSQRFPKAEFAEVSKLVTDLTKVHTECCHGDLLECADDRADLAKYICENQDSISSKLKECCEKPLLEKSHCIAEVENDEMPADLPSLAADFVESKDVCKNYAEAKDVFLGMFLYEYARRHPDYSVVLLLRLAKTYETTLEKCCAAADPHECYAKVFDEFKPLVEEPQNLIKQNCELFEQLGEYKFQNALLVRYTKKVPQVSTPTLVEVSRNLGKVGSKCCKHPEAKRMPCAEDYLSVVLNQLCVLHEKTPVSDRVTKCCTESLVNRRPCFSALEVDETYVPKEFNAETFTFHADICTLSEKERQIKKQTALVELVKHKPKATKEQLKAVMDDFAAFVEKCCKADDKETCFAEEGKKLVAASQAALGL
T1 sequence (P08581 with tags, fused parts or gaps limits assumed): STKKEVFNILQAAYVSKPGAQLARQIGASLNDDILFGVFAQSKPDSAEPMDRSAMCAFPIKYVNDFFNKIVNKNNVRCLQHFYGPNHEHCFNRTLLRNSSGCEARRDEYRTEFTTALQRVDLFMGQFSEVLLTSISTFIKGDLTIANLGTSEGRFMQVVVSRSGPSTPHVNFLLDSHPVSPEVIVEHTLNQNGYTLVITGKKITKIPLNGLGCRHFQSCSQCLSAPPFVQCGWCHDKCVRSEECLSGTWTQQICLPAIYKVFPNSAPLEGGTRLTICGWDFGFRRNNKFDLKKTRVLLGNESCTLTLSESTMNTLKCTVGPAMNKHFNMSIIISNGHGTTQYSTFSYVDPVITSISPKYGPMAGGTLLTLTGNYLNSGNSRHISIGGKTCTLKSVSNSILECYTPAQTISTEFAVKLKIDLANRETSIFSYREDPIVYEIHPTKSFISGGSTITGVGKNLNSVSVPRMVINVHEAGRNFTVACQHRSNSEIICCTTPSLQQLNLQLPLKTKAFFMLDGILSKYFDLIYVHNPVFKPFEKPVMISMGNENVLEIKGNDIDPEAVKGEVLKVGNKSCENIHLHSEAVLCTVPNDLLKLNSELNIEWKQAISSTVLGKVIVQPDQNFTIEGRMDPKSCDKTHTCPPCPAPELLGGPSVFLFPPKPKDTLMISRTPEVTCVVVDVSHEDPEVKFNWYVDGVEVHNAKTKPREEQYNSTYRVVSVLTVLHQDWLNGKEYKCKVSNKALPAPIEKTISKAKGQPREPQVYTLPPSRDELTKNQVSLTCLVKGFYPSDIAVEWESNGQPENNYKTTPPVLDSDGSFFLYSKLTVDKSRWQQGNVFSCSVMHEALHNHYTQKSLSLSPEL
T1 sequence (P08581 25-307 limits assumed, change not shown): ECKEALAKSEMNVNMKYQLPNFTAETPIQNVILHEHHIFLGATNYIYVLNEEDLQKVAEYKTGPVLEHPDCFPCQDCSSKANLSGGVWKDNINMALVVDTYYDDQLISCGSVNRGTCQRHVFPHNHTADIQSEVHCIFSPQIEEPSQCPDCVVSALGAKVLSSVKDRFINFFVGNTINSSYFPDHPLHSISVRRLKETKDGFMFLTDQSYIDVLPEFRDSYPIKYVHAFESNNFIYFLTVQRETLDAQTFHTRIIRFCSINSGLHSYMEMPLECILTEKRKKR

CCN(CC)c1ccc2c(c1)OC(C(C)(C)C)=C/C2=C\C=C\C1=[N+](CCCS(=O)(=O)[O-])c2ccc(S(=O)(=O)O)cc2C1(C)CCCC(=O)NCCCC[C@H](NC(=O)CNC(=O)CNC(=O)CNC(=O)[C@@H](NC(=O)CNC(=O)[C@H](CCC(=O)O)NC(=O)[C@@H](NC(=O)[C@H](CCC(=O)O)NC(=O)[C@H](Cc1ccc(O)cc1)NC(=O)[C@@H]1CSSC[C@H](NC(=O)[C@H](CO)NC(=O)CNC(=O)[C@H](C)NC(C)=O)C(=O)N[C@@H](Cc2ccc(O)cc2)C(=O)N[C@H]2CSSC[C@H](NC(=O)[C@H](CCC(=O)O)NC(=O)[C@H](Cc3ccccc3)NC(=O)[C@H](CCCNC(=N)N)NC(=O)[C@@H]3CCCN3C(=O)[C@@H]3CCCN3C(=O)CNC(=O)[C@H](CO)NC2=O)C(=O)N[C@@H](Cc2c[nH]c3ccccc23)C(=O)N1)[C@@H](C)O)[C@@H](C)O)C(N)=O (some centres unmarked) [Compound 2] (Ac-AGSCYCSGPPRFECWCYETEGTGGGK(X9)-NH2; disulfide 4-16, 6-14)
Average tumour:muscle ratio (2 hours p.i.) [1]: 2.40

CC(=O)N[C@@H](C)C(=O)NCC(=O)N[C@@H](CO)C(=O)N[C@H]1CSSC[C@@H](C(=O)N[C@@H](Cc2ccc(O)cc2)C(=O)N[C@@H](CCC(=O)O)C(=O)N[C@H](C(=O)N[C@@H](CCC(=O)O)C(=O)NCC(=O)N[C@H](C(=O)NCC(=O)NCC(=O)NCC(=O)N[C@@H](CCCCNC(=O)CCCC2(C)C(/C=C/C=C3\C=C(C(C)(C)C)Oc4cc5c(cc43)C(C)=CC(C)(C)N5CCCS(=O)(=O)O)=[N+](CCCS(=O)(=O)O)c3ccc(S(=O)(=O)[O-])cc32)C(N)=O)[C@@H](C)O)[C@@H](C)O)NC(=O)[C@H](Cc2c[nH]c3ccccc23)NC(=O)[C@@H]2CSSC[C@H](NC(=O)[C@H](Cc3ccc(O)cc3)NC1=O)C(=O)N[C@@H](CO)C(=O)NCC(=O)N1CCC[C@H]1C(=O)N1CCC[C@H]1C(=O)N[C@@H](CCCNC(=N)N)C(=O)N[C@@H](Cc1ccccc1)C(=O)N[C@@H](CCC(=O)O)C(=O)N2 (some centres unmarked) [Compound 6] (Ac-AGSCYCSGPPRFECWCYETEGTGGGK(X1)-NH2; disulfide 4-16, 6-14)
pKd (human c-Met/Fc chimera): 9.05
fraction unbound (human serum albumin [2]): 0.54
remaining at 2 h (in vitro): > 95%
Fluorescence staining of blood vessels in the kidney ([3]; 100 times dose, day 21 p.i. (strong on day 1, reduced by day 14)): not discernible from control
Light microscopy of the kidneys ([3]; 100 times dose, necropsy at 1, 14, 21 and 28 days p.i.): no Compound 6-related findings in the kidneys
Nephrotoxicity ([3]; 100 times dose, no degeneration, necrosis or inflammation): low
Time to disappearance of blue colouration of skin and urine ([3]; 100 times dose, observed immediately after injection): ≤ 1 days
Tolerance of a single intravenous administration ([3]; 100 times the preclinical imaging dose (50 nmol/kg body weight)): well tolerated and without any drug substance related adverse effects
Binding human serum albumin (Biacore) (human serum albumin [4]): Very low

CCN1c2cc3c(cc2C(C)=CC1(C)C)/C(=C/C=C/C1=[N+](CCCS(=O)(=O)[O-])c2ccc(S(=O)(=O)O)cc2C1(C)CCCC(=O)NCCCC[C@H](NC(=O)CNC(=O)CNC(=O)CNC(=O)[C@@H](NC(=O)CNC(=O)[C@H](CCC(=O)O)NC(=O)[C@@H](NC(=O)[C@H](CCC(=O)O)NC(=O)[C@H](Cc1ccc(O)cc1)NC(=O)[C@@H]1CSSC[C@H](NC(=O)[C@H](CO)NC(=O)CNC(=O)[C@H](C)NC(C)=O)C(=O)N[C@@H](Cc2ccc(O)cc2)C(=O)N[C@H]2CSSC[C@H](NC(=O)[C@H](CCC(=O)O)NC(=O)[C@H](Cc4ccccc4)NC(=O)[C@H](CCCNC(=N)N)NC(=O)[C@@H]4CCCN4C(=O)[C@@H]4CCCN4C(=O)CNC(=O)[C@H](CO)NC2=O)C(=O)N[C@@H](Cc2c[nH]c4ccccc24)C(=O)N1)[C@@H](C)O)[C@@H](C)O)C(N)=O)C=C(C(C)(C)C)O3 (some centres unmarked) [Compound 5] (Ac-AGSCYCSGPPRFECWCYETEGTGGGK(X7)-NH2; disulfide 4-16, 6-14)
Average tumour:muscle ratio (2 hours p.i.) [1]: 1.22

CCN1c2cc3c(cc2C(C)=CC1(C)C)/C(=C/C=C/C1=[N+](CCCCCC(=O)NCCCC[C@H](NC(=O)CNC(=O)CNC(=O)CNC(=O)[C@@H](NC(=O)CNC(=O)[C@H](CCC(=O)O)NC(=O)[C@@H](NC(=O)[C@H](CCC(=O)O)NC(=O)[C@H](Cc2ccc(O)cc2)NC(=O)[C@@H]2CSSC[C@H](NC(=O)[C@H](CO)NC(=O)CNC(=O)[C@H](C)NC(C)=O)C(=O)N[C@@H](Cc4ccc(O)cc4)C(=O)N[C@H]4CSSC[C@H](NC(=O)[C@H](CCC(=O)O)NC(=O)[C@H](Cc5ccccc5)NC(=O)[C@H](CCCNC(=N)N)NC(=O)[C@@H]5CCCN5C(=O)[C@@H]5CCCN5C(=O)CNC(=O)[C@H](CO)NC4=O)C(=O)N[C@@H](Cc4c[nH]c5ccccc45)C(=O)N2)[C@@H](C)O)[C@@H](C)O)C(N)=O)c2ccc(S(=O)(=O)[O-])cc2C1(C)C)C=C(C(C)(C)C)O3 [Compound 4] (Ac-AGSCYCSGPPRFECWCYETEGTGGGK(X2)-NH2; disulfide 4-16, 6-14)
pKd (human c-Met/Fc chimera): 8.49
fraction unbound (human serum albumin [2]): 0.45
remaining at 2 h (in vitro): > 95%
Average tumour:muscle ratio (2 hours p.i.) [1]: 1.52
Binding human serum albumin (Biacore) (human serum albumin [4]): Very high

CC(=O)N[C@@H](C)C(=O)NCC(=O)N[C@@H](CO)C(=O)N[C@H]1CSSC[C@@H](C(=O)N[C@@H](Cc2ccc(O)cc2)C(=O)N[C@@H](CCC(=O)O)C(=O)N[C@H](C(=O)N[C@@H](CCC(=O)O)C(=O)NCC(=O)N[C@H](C(=O)NCC(=O)NCC(=O)NCC(=O)N[C@@H](CCCCNC(=O)CCCC2(C)C(/C=C/C=C3\C=C(C(C)(C)C)Oc4cc5c(cc43)C(C)=CC(C)(C)N5CCCS(=O)(=O)O)=[N+](CCCS(=O)(=O)[O-])c3ccc(S(=O)(=O)O)cc32)C(N)=O)[C@@H](C)O)[C@@H](C)O)NC(=O)[C@H](Cc2c[nH]c3ccccc23)NC(=O)[C@@H]2CSSC[C@H](NC(=O)[C@H](Cc3ccc(O)cc3)NC1=O)C(=O)N[C@@H](CO)C(=O)NCC(=O)N1CCC[C@H]1C(=O)N1CCC[C@H]1C(=O)N[C@@H](CCCNC(=N)N)C(=O)N[C@@H](Cc1ccccc1)C(=O)N[C@@H](CCC(=O)O)C(=O)N2 (some centres unmarked) [Compound 6] (Ac-AGSCYCSGPPRFECWCYETEGTGGGK(X8)-NH2; disulfide 4-16, 6-14)
Average tumour:muscle ratio (2 hours p.i.) [1]: 1.57
